Measurements published in PMC6640674.

Target: BPSL1626 (Burkholderia pseudomallei strain K96423) (UniProt Q63UH6)
Assay: crystal structure

Question: For “BPSL1626 (from UniProt Q63UH6 26-176) (natural protein)”, which stoichiometry N is on record?
Answer: Its stoichiometry N is 2.
